According to paper PMC3086059:

Target: Mua fused to the T18 or T25 fragment of adenylate cyclase (BACTH) (Helicobacter pylori)
Assay: two-hybrid
Conditions: scale: Miller units per mg of bacterial dry weight

In the case of “Mua fused to the T18 or T25 fragment of adenylate cyclase (BACTH) (natural protein)”, the beta-galactosidase activity is reported as 1920 to 2980.
